The target in experiment [1] is T1, soluble human FcRn (human, UniProt P55899 24-297; P61769 21-119, biotinylated (Sulfo-NHS-LC-Biotin) in the ELISA; amine-coupled to CM5 chip in SPR).
T1 construct: also called shFcRn; biotinylated shFcRn
As to the kind of experiment: SPR, pH 6. (In general: Surface plasmon resonance follows binding to a sensor surface in real time, without labels.)

In experiment [2] the target is T1, soluble human FcRn. As to the kind of experiment: ELISA, competitor human IgG. (In an ELISA, binding on a coated surface is turned into a signal by an enzyme label.)
Protocol: (§1) The wells were coated with 100 μl/well of 1 μg/ml biotinylated-shFcRn in Buffer A. The plate was sealed and incubated at 37° C. for 2 hours. Afterwards, the plate washed with 200 μl/well of Buffer B (Buffer B: 100 mM MES pH 6, 150 mM NaCl, 0.5% BSA IgG-free (Jackson ImmunoResearch, West Grove, Pa.), 0.05% Tween-20). […] To allow for mixing, the plate was rocked for 2 minutes, sealed and incubated at 37° C. for 2 hours. […] The plate was covered, incubated for 30 minutes at room temperature and washed 4 times with 200 μl/well of ice-cold buffer B. SureBlue TMB substrate solution (100 μl/well, KPL, Gaithersburg, Md.) was added and the plate was allowed to incubate at room temperature until color developed, which took 5 to 10 minutes. Once color developed, 100 μl/well of TMB stop solution (KPL, Gaithersburg, Md.) was added and the absorbance was measured at 450 nm. The data was plotted as absorbance vs. peptide concentration to derive the inhibitory concentration 50% (IC₅₀) values.
The target of experiment [3] is T1, soluble human FcRn. As to the kind of experiment: SPR, pH 6. This is another data set of the same source.
Protocol: The following steps were performed to cross-link soluble human or cynomolgus FcRn to the dextran surface of a CM5 sensor chip (Biacore AB, Uppsala, Sweden) by an amine coupling reaction involving 1-ethyl-(3-dimethylaminopropyl)-carbodiimide hydrochloride (EDC) (Biacore AB, Uppsala, Sweden) and N-hydroxysuccinimide (NHS) (Biacore AB, Uppsala, Sweden) as recommended by Biacore (BIAapplications Handbook, version AB, section 4.2, Biacore AB, Uppsala, Sweden). […] Residual sites on the FcRn flow cell were blocked with 1 M ethanolamine hydrochloride pH 8.5 (Biacore AB, Uppsala, Sweden). A control flow cell was blocked with ethanolamine for reference subtraction. For analysis of the monomeric peptides, FcRn was coated to a final density of 4000-5000 response units (RU). For analysis of the peptide dimers, FcRn was coated to a density of 2000-2500 RU. All SPR measurements were performed using a BIACORE 3000 Instrument (Biacore AB Uppsala, Sweden). For measurements done at either pH 6 or pH 7.4, experiments were performed in 50 mM phosphate, 100 mM sodium chloride, 0.01% surfactant P20 (Biacore AB, Uppsala, Sweden).
Ten, 2-fold dilutions of the peptide were injected over the FcRn-CM5 chip at a rate of 20 μl/min for 2 min. The peptide was dissociated from the chip for 2.5 minutes with buffer. Any remaining peptide was removed from the chip with a 30 second injection of HBS-P buffer (Biacore AB, Uppsala, Sweden) at a rate of 30 μl/min. Sensorgrams were generated and analyzed using BiaEval software version 3.1 (Biacore AB, Uppsala, Sweden). The equilibrium RU observed for each injection was plotted against concentration. The equilibrium KD values were derived by analysis of the plots using the steady state affinity model included in the BiaEval software.
The target of experiment [4] is T1, soluble human FcRn. Put plainly: ELISA, competitor human IgG. This is another data set of the same source.
Protocol: as §1
For experiment [5], the target named is T1, soluble human FcRn. Put plainly: ELISA, competitor human IgG. This is another data set of the same source.
Protocol: as §1

Read-outs that look alike come from different tables or passages of the source. Bridge positions count the residues as written; N and C are the ends. Square brackets hold non-standard residues; d marks the D form. Ends that are not written are not given here. Pen = CC(C)(S)[C@H](N)C(=O)O; Dab = NCC[C@H](N)C(=O)O A value given as a limit tells only on which side of the number the result lay.

For orientation: Kd means the free concentration of one partner at which half of the binding sites on the other are occupied at equilibrium, for simple one-to-one binding. Broadly, the IC50 is the midpoint of a concentration-inhibition curve. Read a low IC50 as inhibition by little substance.

T1 sequence (P55899 24-297 limits assumed, chain 1 of 2): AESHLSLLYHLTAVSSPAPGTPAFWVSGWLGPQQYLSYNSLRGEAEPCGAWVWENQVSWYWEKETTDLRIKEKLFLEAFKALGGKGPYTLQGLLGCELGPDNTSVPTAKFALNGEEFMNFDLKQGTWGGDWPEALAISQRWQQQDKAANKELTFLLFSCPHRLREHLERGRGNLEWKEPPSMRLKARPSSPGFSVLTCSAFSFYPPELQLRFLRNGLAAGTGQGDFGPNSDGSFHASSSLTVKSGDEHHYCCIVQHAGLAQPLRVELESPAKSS
T1 sequence (P61769 21-119 limits assumed, chain 2 of 2): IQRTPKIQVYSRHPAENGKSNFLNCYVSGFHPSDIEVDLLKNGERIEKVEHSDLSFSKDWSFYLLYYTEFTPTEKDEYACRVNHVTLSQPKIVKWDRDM

Molecule RFXTGAFGGLYPC (Pen at 3; Sar at 9; NMeLeu at 10; disulfide; C-terminal amide) [Peptide No. 266] displayed a Kd in experiment [1] of 9.9 µM. In addition, the IC50 in experiment [2] was more than 100 µM.
The molecule QRFXTGXFGGLYPCNGP (Pen at 4; (1Me)His at 7; disulfide; C-terminal amide) [Peptide No. 138] gave a Kd in experiment [1] of 0.74 µM. In experiment [2], the IC50 was determined as 3.4 µM.
Molecule QRFXTGHFGYLYPCNGP (Pen at 4; D-Tyr at 10; disulfide; C-terminal amide) [Peptide No. 45] registered a Kd in experiment [3] of 1.5 µM.
QRFXTGHFRGLYPCNGP (Pen at 4; D-Arg at 9; disulfide; C-terminal amide) [Peptide No. 49] had a half-inhibitory concentration (IC50) in experiment [4] of 4.1 µM.
On to QRFXTGHFFGLYPCNGP (Pen at 4; D-Phe at 9; disulfide; C-terminal amide) [Peptide No. 52], for which the Kd in experiment [3] worked out at 0.51 µM. The molecule also returned an IC50 in experiment [4] of 2.8 µM.

B1: Peptide No. 151 (peptide)
peptide: QRF[Pen]TGHF[dF][dA]LYPCNGP-NH2
modifications: disulfide 4-14; N-terminus assumed
SMILES: CC(C)C[C@@H]1NC(=O)[C@@H](C)NC(=O)[C@@H](Cc2ccccc2)NC(=O)[C@H](Cc2ccccc2)NC(=O)[C@H](Cc2c[nH]cn2)NC(=O)CNC(=O)[C@H]([C@@H](C)O)NC(=O)[C@@H](NC(=O)[C@H](Cc2ccccc2)NC(=O)[C@H](CCCNC(=N)N)NC(=O)[C@@H](N)CCC(N)=O)C(C)(C)SSC[C@@H](C(=O)N[C@@H](CC(N)=O)C(=O)NCC(=O)N2CCC[C@H]2C(N)=O)NC(=O)[C@@H]2CCCN2C(=O)[C@H](Cc2ccc(O)cc2)NC1=O
Molecule B1 had an IC50 in experiment [4] of 4.3 µM.
For the molecule QRFXTGHFFGLYPCNGP (Pen at 4; D-Phe at 9; NMeLeu at 11; disulfide; C-terminal amide) [Peptide No. 153], in experiment [3], the affinity, expressed as Kd, was 0.24 µM. The molecule further came in with an IC50 in experiment [4] of 1.3 µM.
In the case of QRFXTGHFFPLYPCNGP (Pen at 4; D-Phe at 9; D-Pro at 10; disulfide; C-terminal amide) [Peptide No. 150], the Kd in experiment [3] was determined as 0.72 µM. Moreover, in experiment [4], the IC50 turned out to be 5.9 µM.
In experiment [3], QRFXTGHFAGLYPCNGP (Pen at 4; D-Ala at 9; Sar at 10; disulfide; C-terminal amide) [Peptide No. 189] yielded a Kd of 0.19 µM.

B2: Peptide No. 149 (peptide)
peptide: QRF[Pen]TGHF[dA][dP]LYPCNGP-NH2
modifications: disulfide 4-14; N-terminus assumed
SMILES: CC(C)C[C@@H]1NC(=O)[C@H]2CCCN2C(=O)[C@@H](C)NC(=O)[C@H](Cc2ccccc2)NC(=O)[C@H](Cc2c[nH]cn2)NC(=O)CNC(=O)[C@H]([C@@H](C)O)NC(=O)[C@@H](NC(=O)[C@H](Cc2ccccc2)NC(=O)[C@H](CCCNC(=N)N)NC(=O)[C@@H](N)CCC(N)=O)C(C)(C)SSC[C@@H](C(=O)N[C@@H](CC(N)=O)C(=O)NCC(=O)N2CCC[C@H]2C(N)=O)NC(=O)[C@@H]2CCCN2C(=O)[C@H](Cc2ccc(O)cc2)NC1=O
The molecule B2 returned an IC50 in experiment [4] of 3.7 µM.
Consider QRFXTGHFHGLYPCNGP (Pen at 4; D-His at 9; disulfide; C-terminal amide) [Peptide No. 50], for which the IC50 in experiment [4] was 3.6 µM.

B3: Peptide No. 155 (peptide)
peptide: QRF[Pen]TGHF[dF]GPYPCNGP-NH2
modifications: disulfide 4-14; N-terminus assumed
SMILES: C[C@@H](O)[C@@H]1NC(=O)[C@@H](NC(=O)[C@H](Cc2ccccc2)NC(=O)[C@H](CCCNC(=N)N)NC(=O)[C@@H](N)CCC(N)=O)C(C)(C)SSC[C@@H](C(=O)N[C@@H](CC(N)=O)C(=O)NCC(=O)N2CCC[C@H]2C(N)=O)NC(=O)[C@@H]2CCCN2C(=O)[C@H](Cc2ccc(O)cc2)NC(=O)[C@@H]2CCCN2C(=O)CNC(=O)[C@@H](Cc2ccccc2)NC(=O)[C@H](Cc2ccccc2)NC(=O)[C@H](Cc2c[nH]cn2)NC(=O)CNC1=O
In turn, B3 showed a Kd in experiment [3] of 18.3 µM. The IC50 in experiment [4] stood at 39 µM.
The molecule QRFXTGHFPPLYPCNGP (Pen at 4; D-Pro at 9 and 10; disulfide; C-terminal amide) [Peptide No. 152] came in with an IC50 in experiment [4] of 21 µM.
In the case of QRFXTGHFAGLYPCNGP (Pen at 4; D-Ala at 9; disulfide; C-terminal amide) [Peptide No. 75], the Kd in experiment [3] was determined as 0.49 µM.
In turn, QRFXTGHFPGLYPCNGP (Pen at 4; D-Pro at 9; disulfide; C-terminal amide) [Peptide No. 48] yielded an IC50 in experiment [4] of 5 µM.
With QRFXTGHFGALYPCNGP (Pen at 4; D-Ala at 10; disulfide; C-terminal amide) [Peptide No. 74], in experiment [3], the affinity, expressed as Kd, was 0.48 µM. Moreover, the IC50 in experiment [4] is 2 µM.
Molecule QRFXTGHFAALYPCNGP (Pen at 4; D-Ala at 9 and 10; disulfide; C-terminal amide) [Peptide No. 148] came in with an equilibrium dissociation constant (Kd) in experiment [3] of 0.45 µM.
The same measure, in the same setting: to QRFXTGHFFPLYPCNGP (Pen at 4; D-Phe at 9 (L-Pro at 10); disulfide; C-terminal amide) [Peptide No. 203] belongs 3.8 µM.

B4: Peptide No. 36 (peptide)
peptide: QRFCTG[Dab]FGGLYPCNGP-NH2
modifications: disulfide 4-14; N-terminus assumed
SMILES: CC(C)C[C@@H]1NC(=O)CNC(=O)CNC(=O)[C@H](Cc2ccccc2)NC(=O)[C@H](CCN)NC(=O)CNC(=O)[C@H]([C@@H](C)O)NC(=O)[C@@H](NC(=O)[C@H](Cc2ccccc2)NC(=O)[C@H](CCCNC(=N)N)NC(=O)[C@@H](N)CCC(N)=O)CSSC[C@@H](C(=O)N[C@@H](CC(N)=O)C(=O)NCC(=O)N2CCC[C@H]2C(N)=O)NC(=O)[C@@H]2CCCN2C(=O)[C@H](Cc2ccc(O)cc2)NC1=O
Regarding B4, the IC50 in experiment [2] was more than 125 µM.

B5: Peptide No. 157 (peptide)
peptide: QRFVTGHFG[dP]LYPANGP-NH2
modifications: N-terminus assumed
SMILES: CC(C)C[C@H](NC(=O)[C@H]1CCCN1C(=O)CNC(=O)[C@H](Cc1ccccc1)NC(=O)[C@H](Cc1c[nH]cn1)NC(=O)CNC(=O)[C@@H](NC(=O)[C@@H](NC(=O)[C@H](Cc1ccccc1)NC(=O)[C@H](CCCNC(=N)N)NC(=O)[C@@H](N)CCC(N)=O)C(C)C)[C@@H](C)O)C(=O)N[C@@H](Cc1ccc(O)cc1)C(=O)N1CCC[C@H]1C(=O)N[C@@H](C)C(=O)N[C@@H](CC(N)=O)C(=O)NCC(=O)N1CCC[C@H]1C(N)=O
The molecule B5 showed an IC50 in experiment [5] of 195 µM.

B6: Peptide No. 168 (peptide)
peptide: QRFVTGHFG[dP]LYPLNGP-NH2
modifications: N-terminus assumed
SMILES: CC(C)C[C@H](NC(=O)[C@H]1CCCN1C(=O)CNC(=O)[C@H](Cc1ccccc1)NC(=O)[C@H](Cc1c[nH]cn1)NC(=O)CNC(=O)[C@@H](NC(=O)[C@@H](NC(=O)[C@H](Cc1ccccc1)NC(=O)[C@H](CCCNC(=N)N)NC(=O)[C@@H](N)CCC(N)=O)C(C)C)[C@@H](C)O)C(=O)N[C@@H](Cc1ccc(O)cc1)C(=O)N1CCC[C@H]1C(=O)N[C@@H](CC(C)C)C(=O)N[C@@H](CC(N)=O)C(=O)NCC(=O)N1CCC[C@H]1C(N)=O
In experiment [5], B6 showed an IC50 of 100 µM.

B7: Peptide No. 174 (peptide)
peptide: QRFVTGHFG[dP]IYPANGP-NH2
modifications: N-terminus assumed
SMILES: CC[C@H](C)[C@H](NC(=O)[C@H]1CCCN1C(=O)CNC(=O)[C@H](Cc1ccccc1)NC(=O)[C@H](Cc1c[nH]cn1)NC(=O)CNC(=O)[C@@H](NC(=O)[C@@H](NC(=O)[C@H](Cc1ccccc1)NC(=O)[C@H](CCCNC(=N)N)NC(=O)[C@@H](N)CCC(N)=O)C(C)C)[C@@H](C)O)C(=O)N[C@@H](Cc1ccc(O)cc1)C(=O)N1CCC[C@H]1C(=O)N[C@@H](C)C(=O)N[C@@H](CC(N)=O)C(=O)NCC(=O)N1CCC[C@H]1C(N)=O
Molecule B7 displayed an IC50 in experiment [5] of 94 µM.

B8: Peptide No. 261 (peptide)
peptide: RFXTGXFGGLYPC
modifications: Pen at 3; PropargylGly at 6; Sar at 9; NMeLeu at 10; disulfide; C-terminal amide
In experiment [2], B8 had an IC50 of 160 µM.

B9: Peptide No. 269 (peptide)
peptide: RFXTGXFGGLYPC
modifications: Pen at 3; Thz(Me) (N-methyl-thiazolium) at 6; Sar at 9; NMeLeu at 10; disulfide; -CONH2
Turning to B9, in experiment [2], the IC50 amounted to 2.4 µM.

B10: Peptide No. 262 (peptide)
peptide: RFXTGXFGGLYPC
modifications: Pen at 3; 2-PyrrolidinylAla at 6; Sar at 9; NMeLeu at 10; disulfide; C-terminal amide
As to B10, the Kd in experiment [1] was determined as 8.4 µM.

B11: Peptide No. 248 (peptide)
peptide: RFXTGXFGGLYPC
modifications: not fully specified; Pen at 3; Thz at 6; Sar at 9; NMeLeu at 10; disulfide; C-terminal amide
B11: in experiment [1], the Kd was determined as 0.84 µM. The molecule further registered an IC50 in experiment [2] of 1.6 µM.

B12: Peptide No. 271 (peptide)
peptide: RFXTGXFGGLYPC
modifications: Pen at 3; triazolylAla at 6; Sar at 9; NMeLeu at 10; disulfide; C-terminal amide
B12 displayed an IC50 in experiment [2] of 5.7 µM.
In the case of QRFXTGXFGGLYPCNGP (Pen at 4; Thz at 7; disulfide; C-terminal amide) [Peptide No. 91], the IC50 in experiment [2] was determined as 44 µM.
QRFXTGHFXGLYPCNGP (Pen at 4; Aib at 9; disulfide; C-terminal amide) [Peptide No. 54] had a Kd in experiment [3] of 5.2 µM. Further, the half-inhibitory concentration (IC50) in experiment [4] came out at 17 µM.
RFXTGXFGGLYPC (Pen at 3; 4aminoPhe at 6; Sar at 9; NMeLeu at 10; disulfide; C-terminal amide) [Peptide No. 258] yielded an IC50 in experiment [2] of 4.6 µM.
In experiment [1], RFXTGXFGGLYPC (Pen at 3; Orn at 6; Sar at 9; NMeLeu at 10; disulfide; C-terminal amide) [Peptide No. 254] showed a Kd of 1.3 µM.
